Data published in patent US20240101668A1 (WUGEN, published 2024).
Substitutions are numbered along the chain they refer to.

Key:
[1] = molecular target: T1, huCD33-G69-Fc recombinant protein (human, UniProt P20138 18-259); test: BLI;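 note: biolayer interferometry: scFvs captured from periplasmic extracts on anti-V5-loaded streptavidin biosensors, antigen association for 2 min, buffer dissociation for 5 min, 1:1 Langmuir fit giving off-rate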
T1 construct: extracellular domain; also called CD33 R69G
Protocol: Discovered scFvs were analyzed for binding to huCD33-R69-His or huCD33-G69-Fc recombinant proteins (for anti-CD33 scFvs; for CLL-1 scFvs, huCLL1-K244-Avi-Tev-His or huCLL1-Q244-Avi-Tev-His were used; for FLT3, huFLT3-T227-His or huFLT3-M227-Fc were used) using BLI on a ForteBio Octet HTX instrument. Streptavidin-coated biosensors were loaded with biotinylated anti-V5 tag monoclonal antibody for 5 min and were then quenched and blocked with 20 μM amine-PEG2-Biotin for 5 min. scFvs were captured on biosensors from scFv clone periplasmic extracts. huCD33 (or huCLL-1, or huFLT3) proteins were then associated with the captured scFvs for 2 minutes, followed by dissociation with buffer (1×HBST [10 mM HEPES pH 7.4, 150 mM NaCl, 0.05% Tween-20], 1 g/L BSA) for 5 minutes. […] Data was fitted with 1:1 Langmuir equation and off-rate values were reported.

[2] = molecular target: T2, huCD33-R69 stably expressed on Jurkat cells (human, UniProt P20138 18-364); test: FACS on cells;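 note: fixed Jurkat lines probed with myc-tagged scFv periplasmic extracts, anti-myc PE flow cytometry, PE MFI fold binned − <2, + 2–10, ++ 10–30, +++ >30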
T2 construct: whole, on cells; >200,000 receptors per cell; also called CD33 WT; CD33^ARG69

[3] = molecular target: T3, huCD33-G69 stably expressed on Jurkat cells (human, UniProt P20138 18-364); test: FACS on cells;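 note: fixed Jurkat lines probed with myc-tagged scFv periplasmic extracts, anti-myc PE flow cytometry, PE MFI fold binned − <2, + 2–10, ++ 10–30, +++ >30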
T3 construct: whole, on cells; >200,000 receptors per cell; also called CD33 Mutant; CD33 R69G
T3 sequence (P20138 18-364 R69G): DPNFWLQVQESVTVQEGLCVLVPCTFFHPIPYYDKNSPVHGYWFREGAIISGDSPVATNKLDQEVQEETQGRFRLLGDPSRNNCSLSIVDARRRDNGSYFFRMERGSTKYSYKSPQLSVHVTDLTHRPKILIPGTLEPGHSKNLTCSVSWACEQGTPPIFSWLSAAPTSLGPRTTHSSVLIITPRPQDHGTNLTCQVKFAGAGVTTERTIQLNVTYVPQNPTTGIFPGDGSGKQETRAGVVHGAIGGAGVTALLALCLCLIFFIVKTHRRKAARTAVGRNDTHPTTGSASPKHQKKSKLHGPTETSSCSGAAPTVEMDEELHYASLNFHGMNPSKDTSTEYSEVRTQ

T1 sequence (P20138 18-259 R69G): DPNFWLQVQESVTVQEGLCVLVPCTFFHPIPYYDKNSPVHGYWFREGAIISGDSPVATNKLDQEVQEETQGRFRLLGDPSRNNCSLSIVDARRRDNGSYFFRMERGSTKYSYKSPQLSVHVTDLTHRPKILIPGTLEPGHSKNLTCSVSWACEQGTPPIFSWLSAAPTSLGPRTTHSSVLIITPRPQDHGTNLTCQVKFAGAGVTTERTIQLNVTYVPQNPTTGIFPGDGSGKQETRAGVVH
T2 sequence (P20138 18-364): as the sequence (P20138 18-364 R69G) above, with G52R counted along it

B1: Polypeptide No. 141 (scFv, V domains shown)
VH: QVQLVQSGAEVKKPGASVKVSCKASGGTFSSYAISWVRQAPGQGLEWMGVISPNGDTTVYAQKFQGRVTMTRDTSTSTVYMELSSLRSEDTAVYYCARDRGVAHSYYYGMDVWGQGTLVTVSS
VL: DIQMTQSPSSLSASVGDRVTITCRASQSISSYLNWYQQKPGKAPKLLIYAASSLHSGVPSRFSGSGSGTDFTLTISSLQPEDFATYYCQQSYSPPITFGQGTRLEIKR
notes: scFv
binding result [1]: binds | FACS geometric mean fold change over Jurkat parental [2]: 10 to 30 fold | FACS geometric mean fold change over Jurkat parental [3]: > 30 fold

B2: Polypeptide No. 130 (scFv, V domains shown)
VH: QVQLVQSGAEVKKPGASVKVSCKASGGTFSNYAISWVRQAPGQGLEWMAWMNPNSGNTGYAQKFQGRVTMTRDTSTSTVYMELSSLRSEDTAVYYCARDGFIGFGELFSAFDIWGQGTMVTVSS
VL: DIQMTQSPSSLSASVGDRVTITCRASQSIGTWLAWYQQKPGKAPKLLIYGATRLLSGVPSRFSGSGSGTDFTLTISSLQPEDFATYYCQQSYSTPPTFGQGTKLEIKR
notes: scFv
binding result [1]: binds | FACS geometric mean fold change over Jurkat parental [2]: 10 to 30 fold | FACS geometric mean fold change over Jurkat parental [3]: 10 to 30 fold

B3: Polypeptide No. 134 (scFv, V domains shown)
VH: QVQLVQSGAEVKKPGASVKVSCKASGYTFDSYLLHWVRQAPGQGLEWMGMINPSGAGTTYAQKFQGRVTMTRDTSTSTVYMELSSLRSEDTAVYYCAKEGSIAAGYYFDSWGQGTLVTVSS
VL: B2 VL with G30D, T31S, G50A, T52S, R53S, L55Q, S93T, P96I, Q100G, L104V
notes: scFv
binding result [1]: binds | FACS geometric mean fold change over Jurkat parental [2]: > 30 fold | FACS geometric mean fold change over Jurkat parental [3]: > 30 fold

B4: Polypeptide No. 143 (scFv, V domains shown)
VH: QVQLVQSGAEVKKPGASVKVSCKASGYTFTGYYMHWVRQAPGQGLEWMGWMNANSGNTGFAQKFQGRVTMTRDTSTSTVYMELSSLRSEDTAVYYCARDSSSWLSGGGWFDPWGQGTLVTVSS
VL: B2 VL with W32Y, A34S, G50A, T52S, R53S, L55Q, T94S, P96I
notes: scFv
binding result [1]: binds | FACS geometric mean fold change over Jurkat parental [2]: 2 to 10 fold | FACS geometric mean fold change over Jurkat parental [3]: 2 to 10 fold

B5: Polypeptide No. 136 (scFv, V domains shown)
VH: QVQLVQSGAEVKKPGASVKVSCKASGDTLTNHFVHWVRQAPGQGLEWMGWMNPNSGNTGYAQKFQGRVTMTRDTSTSTVYMELSSLRSEDTAVYYCARDPQMGAVAGGFDYWGQGTLVTVSS
VL: DIQMTQSPSSLSASVGDRVTITCRASQRIGNWLAWYQQKPGKAPKLLIYAASSLQSGVPSRFSGSGSGTDFTLTISSLQPEDFATYYCQQSYSPPLTFGPGTKVDIKR
notes: scFv
binding result [1]: binds | FACS geometric mean fold change over Jurkat parental [2]: 10 to 30 fold | FACS geometric mean fold change over Jurkat parental [3]: 10 to 30 fold

B6: Polypeptide No. 129 (scFv, V domains shown)
VH: EVQLVESGGGLVKPGGSLRLSCAASGFSLRNYWMHWVRQAPGKGLEWVSGISGSGGSTYYADSVKGRFTISRDDSKNTLYLQMNSLKTEDTAVYYCARDYTGVVDYWGQGTLVTVSS
VL: not shown
notes: scFv
binding result [1]: binds | FACS geometric mean fold change over Jurkat parental [2]: 10 to 30 fold | FACS geometric mean fold change over Jurkat parental [3]: 10 to 30 fold

B7: Polypeptide No. 142 (scFv, V domains shown)
VH: EVQLLESGGGLVQPGGSLRLSCAASGFTFSSYWMHWVRQAPGKGLEWVAVISYDGSDKYYADSVKGRFTISRDNSKNTLYLQMNSLRAEDTAVYYCARGLGGTTGTADFDYWGQGTLVTVSS
VL: not shown
notes: scFv
binding result [1]: binds | FACS geometric mean fold change over Jurkat parental [2]: 2 to 10 fold | FACS geometric mean fold change over Jurkat parental [3]: 2 to 10 fold

B8: Polypeptide No. 133 (scFv, V domains shown)
VH: EVQLLESGGGLVQPGGSLRLSCAASGFTFSSSWMHWVRQAPGKGLEWVSAISSSGDATYYADSVKGRFTISRDNSKNTLYLQMNSLRAEDTAVYYCAKFSDGGAGDSDYWGQGTLVTVSS
VL: DIQMTQSPSSLSASVGDRVTITCRASQGISSYLAWYQQKPGKAPKLLIYTASSLQSGVPSRFSGSGSGTDFTLTISSLQPEDFATYYCQQYDNLPITFGQGTRLEIKR
notes: scFv
binding result [1]: binds | FACS geometric mean fold change over Jurkat parental [2]: 2 to 10 fold | FACS geometric mean fold change over Jurkat parental [3]: 2 to 10 fold

B9: Polypeptide No. 135 (scFv, V domains shown)
VH: QVQLVQSGAEVKKPGASVKVSCKASGYSFTTYGITWVRQAPGQGLEWMGWINPNSGNAGYAQKFQGRVTMTRDTSTSTVYMELSSLRSEDTAVYYCASDLAGYSSGYFDLWGRGTLVTVSS
VL: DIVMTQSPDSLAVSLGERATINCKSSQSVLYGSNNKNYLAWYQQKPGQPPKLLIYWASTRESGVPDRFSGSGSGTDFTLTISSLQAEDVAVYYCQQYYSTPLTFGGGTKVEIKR
notes: scFv
binding result [1]: binds | FACS geometric mean fold change over Jurkat parental [2]: 10 to 30 fold | FACS geometric mean fold change over Jurkat parental [3]: > 30 fold

B10: Polypeptide No. 132 (scFv, V domains shown)
VH: EVQLLESGGGLVQPGGSLRLSCAASGFTFNNYGMHWVRQAPGKGLEWVSAISGSGGSTYYADSVKGRFTISRDNSKNTLYLQMNSLRAEDTAVYYCAREYMQQPHGGMDVWGQGTTVTVSS
VL: EIVMTQSPATLSVSPGERATLSCRASQSVNSYLAWYQQKPGQAPRLLIYGASTRATGIPARFSGSGSGTEFTLTISSLQSEDFAVYYCQQYGSSPLSFGGGTKVEIKR
notes: scFv
binding result [1]: binds | FACS geometric mean fold change over Jurkat parental [2]: 2 to 10 fold | FACS geometric mean fold change over Jurkat parental [3]: 10 to 30 fold

B11: Polypeptide No. 138 (scFv, V domains shown)
VH: QVQLVQSGAEVKKPGASVKVSCKASGYTFSSYDMHWVRQAPGQGLEWMGVINPGGGYTNYAQKFQGRVTMTRDTSTSTVYMELSSLRSEDTAVYYCARDEGWELLLDYWGQGTLVTVSS
VL: B10 VL with N30G, Y32N, Y91S, G92H, S94L, L96P, S97T, G100Q, K103R, V104L
notes: scFv
binding result [1]: binds | FACS geometric mean fold change over Jurkat parental [2]: 10 to 30 fold | FACS geometric mean fold change over Jurkat parental [3]: 10 to 30 fold

B12: Polypeptide No. 127 (scFv, V domains shown)
VH: QVQLVQSGAEVKKPGASVKVSCKASGYTFTNHHMHWVRQAPGQGLEWMGMINPSGGSTSYAQKFQGRVTMTRDTSTSTVYMELSSLRSEDTAVYYCARGRPVDIVATYYFDYWGQGTLVTVSS
VL: DIQMTQSPSSLSASVGDRVTITCQASQDIRNFLNWYQQKPGKAPKLLIYGASTLHSGVPSRFSGSGSGTDFTLTISSLQPEDFATYYCQQSYSTPLTFGGGTKVEIKR
notes: scFv
binding result [1]: binds | FACS geometric mean fold change over Jurkat parental [2]: 10 to 30 fold | FACS geometric mean fold change over Jurkat parental [3]: 10 to 30 fold

B13: Polypeptide No. 139 (scFv, V domains shown)
VH: QVQLVQSGAEVKKPGASVKVSCKASGYTLSDHDINWVRQAPGQGLEWMGWMNPSTGNTGYAQKFQGRVTMTRDTSTSTVYMELSSLRSEDTAVYYCERDQLRFGAWFDPWGQGTLVTVSS
VL: B5 VL with R28G, G30R, W32Y, P94I, P100G, D105E
notes: scFv
binding result [1]: binds | FACS geometric mean fold change over Jurkat parental [2]: > 30 fold | FACS geometric mean fold change over Jurkat parental [3]: > 30 fold

B14: Polypeptide No. 137 (scFv, V domains shown)
VH: QVQLVQSGAEVKKPGASVKVSCKASGYTFTDYYIHWVRQAPGQGLEWMGMVNPSGGSANYAQKFQGRVTMTRDTSTSTVYMELSSLRSEDTAVYYCAKDSAWQEPYYFDYWGQGTLVTVSS
VL: B12 VL with Q24R, D28G, R30S, N31S, F32Y, N34A, G50D, T53N, H55D, S56T
notes: scFv
binding result [1]: binds | FACS geometric mean fold change over Jurkat parental [2]: > 30 fold | FACS geometric mean fold change over Jurkat parental [3]: > 30 fold

B15: Polypeptide No. 140 (scFv, V domains shown)
VH: EVQLVESGGGLVKPGGSLRLSCAASGITVSSSWMHWVRQAPGKGLEWVSAIGTGGGTHYADSVKGRFTISRDDSKNTLYLQMNSLKTEDTAVYYCARDQGGQIDHWGQGTLVTVSS
VL: B5 VL with R28S, G30S, N31S, A50D, S53T, P94I, P100G, D105E
notes: scFv
binding result [1]: binds | FACS geometric mean fold change over Jurkat parental [2]: 2 to 10 fold | FACS geometric mean fold change over Jurkat parental [3]: 2 to 10 fold

B16: Polypeptide No. 128 (scFv, V domains shown)
VH: QVQLVQSGAEVKKPGASVKVSCKASGYTFTNYYIHWVRQAPGQGLEWLGWTNPINGDTGSAQKFQGRVTMTRDTSTSTVYMELSSLRSEDTAVYYCAKEGQLAWADYYYYMDVWGKGTTVTVSS
VL: B5 VL with R28G, G30S, N31S, W32A, P94T, P100G, D105E
notes: scFv
binding result [1]: binds | FACS geometric mean fold change over Jurkat parental [2]: 10 to 30 fold | FACS geometric mean fold change over Jurkat parental [3]: 10 to 30 fold

B17: Polypeptide No. 131 (scFv, V domains shown)
VH: QVQLVQSGAEVKKPGASVKVSCKASGGTFSNYAINWVRQAPGQGLEWMGWINPNSGGTDSAQKFQGRVTMTRDTSTSTVYMELSSLRSEDTAVYYCARDSSLALSYGGNSEYYYGMDVWGQGTTVTVSS
VL: B12 VL with R30S, N31D, F32H, H55Q, S91A, T94F, L96W, G100Q, V104L
notes: scFv
binding result [1]: binds | FACS geometric mean fold change over Jurkat parental [2]: > 30 fold | FACS geometric mean fold change over Jurkat parental [3]: 10 to 30 fold
